Assay [1] concerns the target T1, Cancer/testis antigen 1 (CTAG1A) (human, UniProt P78358 1-180).
T1 construct: The array carries full-length recombinant human proteins expressed in S. cerevisiae; also called NY-ESO-1; Cancer/Testis Antigen 1A
Kind of assay: HuProt protein array, F635 z-score. Summed up:
(§1)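 Signal from an Alexa-647 anti-human IgG Fc gamma secondary is converted to a z-score per spot and averaged across the two duplicate spots. Primary antibody incubation: 1 μg/ml, room temperature, 1 hour, on arrays of full-length yeast-expressed proteins.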

Assay [2] addresses T2, O-linked N-acetylglucosamine (GlcNAc) transferase (OGT) (human, UniProt O15294 2-1046).
T2 construct: The array carries full-length recombinant human proteins expressed in S. cerevisiae; also called Human OGT
T2 sequence: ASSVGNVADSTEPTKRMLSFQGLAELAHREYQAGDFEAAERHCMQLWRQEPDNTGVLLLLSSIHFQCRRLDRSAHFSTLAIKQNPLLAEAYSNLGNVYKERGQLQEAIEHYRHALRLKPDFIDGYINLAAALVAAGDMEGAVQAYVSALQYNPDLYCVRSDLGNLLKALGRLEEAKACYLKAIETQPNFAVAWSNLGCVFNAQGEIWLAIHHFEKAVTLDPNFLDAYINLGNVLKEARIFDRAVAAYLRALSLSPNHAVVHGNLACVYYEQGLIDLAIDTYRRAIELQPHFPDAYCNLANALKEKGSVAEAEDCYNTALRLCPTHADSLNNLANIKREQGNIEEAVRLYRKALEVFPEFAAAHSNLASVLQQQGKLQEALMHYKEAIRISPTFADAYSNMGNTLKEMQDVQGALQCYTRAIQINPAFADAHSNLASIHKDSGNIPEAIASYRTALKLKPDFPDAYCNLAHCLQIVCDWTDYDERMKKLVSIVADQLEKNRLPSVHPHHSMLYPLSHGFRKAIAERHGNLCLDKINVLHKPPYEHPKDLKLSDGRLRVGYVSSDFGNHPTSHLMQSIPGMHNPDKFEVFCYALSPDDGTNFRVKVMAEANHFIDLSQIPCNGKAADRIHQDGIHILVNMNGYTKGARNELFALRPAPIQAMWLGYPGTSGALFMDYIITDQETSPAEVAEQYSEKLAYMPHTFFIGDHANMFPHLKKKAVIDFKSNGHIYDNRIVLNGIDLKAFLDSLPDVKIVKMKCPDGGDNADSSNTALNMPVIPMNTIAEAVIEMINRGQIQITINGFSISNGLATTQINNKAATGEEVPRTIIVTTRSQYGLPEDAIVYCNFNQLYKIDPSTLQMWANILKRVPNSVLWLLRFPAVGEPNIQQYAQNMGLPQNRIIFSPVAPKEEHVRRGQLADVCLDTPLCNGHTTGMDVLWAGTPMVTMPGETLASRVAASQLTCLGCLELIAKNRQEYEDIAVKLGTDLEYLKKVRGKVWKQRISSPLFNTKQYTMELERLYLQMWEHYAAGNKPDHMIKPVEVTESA
Kind of assay: HuProt protein array, F635 z-score. Summed up:
as §1

The target in assay [3] is T3, Alpha-taxilin (TXLNA) also known as interleukin-14A (human, UniProt P40222 1-546).
T3 construct: The array carries full-length recombinant human proteins expressed in S. cerevisiae; also called IL-14A; TXLNA/IL-14A
T3 sequence (P40222 whole entry): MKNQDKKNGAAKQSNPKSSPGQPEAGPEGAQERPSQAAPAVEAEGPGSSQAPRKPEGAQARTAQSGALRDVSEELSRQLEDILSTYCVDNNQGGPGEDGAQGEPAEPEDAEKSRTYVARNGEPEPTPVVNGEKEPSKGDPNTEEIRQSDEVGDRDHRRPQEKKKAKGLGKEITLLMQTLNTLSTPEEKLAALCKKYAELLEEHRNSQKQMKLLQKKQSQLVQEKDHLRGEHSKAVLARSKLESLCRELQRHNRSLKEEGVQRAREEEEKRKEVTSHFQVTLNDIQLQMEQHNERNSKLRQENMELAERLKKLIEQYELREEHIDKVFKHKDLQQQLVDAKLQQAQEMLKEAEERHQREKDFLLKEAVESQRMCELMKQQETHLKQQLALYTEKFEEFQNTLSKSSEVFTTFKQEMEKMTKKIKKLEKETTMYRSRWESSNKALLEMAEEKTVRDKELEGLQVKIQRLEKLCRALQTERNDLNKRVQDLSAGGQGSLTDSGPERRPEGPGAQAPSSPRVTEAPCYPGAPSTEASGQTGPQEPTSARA
The assay is described as follows: HuProt protein array, F635 z-score. The method in brief:
as §1

Assay [4] addresses T4, Inorganic pyrophosphatase (PPA1) (human, UniProt Q15181 2-289).
T4 construct: The array carries full-length recombinant human proteins expressed in S. cerevisiae; also called Human PPA1
T4 sequence: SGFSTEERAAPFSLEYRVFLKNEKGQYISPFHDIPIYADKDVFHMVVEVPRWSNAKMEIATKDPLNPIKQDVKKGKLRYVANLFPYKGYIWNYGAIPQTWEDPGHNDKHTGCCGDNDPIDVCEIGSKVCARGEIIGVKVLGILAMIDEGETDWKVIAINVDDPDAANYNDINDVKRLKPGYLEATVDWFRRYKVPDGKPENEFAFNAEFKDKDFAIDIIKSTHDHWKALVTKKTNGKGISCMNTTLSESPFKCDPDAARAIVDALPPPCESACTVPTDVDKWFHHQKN
The assay is described as follows: HuProt protein array, F635 z-score. Summed up: as §1

In assay [5] the target is T5, Chromobox protein homolog 5 (CBX5) (human, UniProt P45973 1-191).
T5 construct: The array carries full-length recombinant human proteins expressed in S. cerevisiae; also called Human Chromobox protein homolog 5
T5 sequence (P45973 whole entry): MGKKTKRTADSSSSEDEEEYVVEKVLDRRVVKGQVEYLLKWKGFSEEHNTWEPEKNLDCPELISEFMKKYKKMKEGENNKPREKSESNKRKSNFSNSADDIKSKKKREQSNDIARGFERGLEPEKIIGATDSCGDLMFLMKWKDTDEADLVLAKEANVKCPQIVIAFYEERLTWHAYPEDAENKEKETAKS
Kind of assay: HuProt protein array, F635 z-score. The method in brief: as §1

The target in assay [6] is T6, Kinesin light chain 4 protein (KLC4) (human, UniProt Q9NSK0 2-619).
T6 construct: The array carries full-length recombinant human proteins expressed in S. cerevisiae; also called Human KLC4
T6 sequence (Q9NSK0 2-619 limits assumed): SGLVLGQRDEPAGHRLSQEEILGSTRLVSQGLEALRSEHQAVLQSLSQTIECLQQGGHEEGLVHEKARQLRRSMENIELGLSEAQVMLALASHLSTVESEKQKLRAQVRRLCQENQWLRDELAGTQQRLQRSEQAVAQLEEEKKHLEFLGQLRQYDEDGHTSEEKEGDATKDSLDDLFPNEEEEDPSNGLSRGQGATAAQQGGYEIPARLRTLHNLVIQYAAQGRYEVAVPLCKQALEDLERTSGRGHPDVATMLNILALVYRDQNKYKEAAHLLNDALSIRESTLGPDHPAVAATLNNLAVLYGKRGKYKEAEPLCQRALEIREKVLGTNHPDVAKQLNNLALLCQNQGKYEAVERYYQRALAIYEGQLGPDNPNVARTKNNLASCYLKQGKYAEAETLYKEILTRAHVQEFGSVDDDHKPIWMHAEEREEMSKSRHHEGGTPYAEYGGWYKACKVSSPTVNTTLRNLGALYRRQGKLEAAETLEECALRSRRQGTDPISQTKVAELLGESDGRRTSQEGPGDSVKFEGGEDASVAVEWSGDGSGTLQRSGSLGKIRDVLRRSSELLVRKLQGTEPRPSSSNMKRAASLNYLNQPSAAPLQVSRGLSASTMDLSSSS
Kind of assay: HuProt protein array, antibody at 1 µg/ml, Alexa-647 anti-human IgG Fc; F635 signal as z-score; KLC4 replicate 1. From the text:
(§2) Large scale protein arrays are versatile and sensitive platforms for antibody specificity evaluation. They can be used for the evaluation of protein binding or affinity reagents that are widely employed in research and clinical applications. The microarray used in our target identification experiment provides the largest number of unique, full-length, individually purified human proteins on a single microscope slide. This allows thousands of interactions to be profiled in a high-throughput manner. The hill-length recombinant proteins are expressed in the yeast S. cerevisiae, purified, and printed on glass slides in duplicate along with a set of control proteins (GST, BSA, histones, IgG, etc.). Such microarray is not restricted to a particular type of surface coating, although the default is glass coated with ultra-thin nitrocellulose film for the non-covalent, yet irreversible, capture of active proteins to the surface. Fourteen Protein arrays were used for the antibody cross-reactivity assay of the samples. […] The antibody-antigen binding score was calculated for each protein represented on the array and expressed as z-scores. […]
(§3) Z score is the average Z score of the duplicate spots of a given protein (each protein is printed in duplicate on a HuProt™ array). The Z score of each spot on a given array is calculated according to the equation: […]

The target of assay [7] is T6, Kinesin light chain 4 protein (KLC4). The assay is described as follows: HuProt protein array, F635 z-score. The method in brief: as §1
Assay [8] concerns the target T7, Melanoma-associated antigen 3 (MAGE-A3) (human, UniProt P43357 1-314).
T7 construct: The array carries full-length recombinant human proteins expressed in S. cerevisiae; also called Human MAGE-A3
The assay is described as follows: HuProt protein array, antibody at 1 µg/ml, Alexa-647 anti-human IgG Fc; F635 signal as z-score; MAGEA3 replicate 1.
Excerpt: as §2, §3

T1 sequence (P78358 whole entry): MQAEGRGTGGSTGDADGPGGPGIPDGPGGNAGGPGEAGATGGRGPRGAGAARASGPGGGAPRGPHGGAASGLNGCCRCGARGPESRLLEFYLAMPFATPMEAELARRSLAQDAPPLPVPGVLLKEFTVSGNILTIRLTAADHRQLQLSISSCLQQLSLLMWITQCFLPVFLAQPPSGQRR
T7 sequence (P43357 whole entry): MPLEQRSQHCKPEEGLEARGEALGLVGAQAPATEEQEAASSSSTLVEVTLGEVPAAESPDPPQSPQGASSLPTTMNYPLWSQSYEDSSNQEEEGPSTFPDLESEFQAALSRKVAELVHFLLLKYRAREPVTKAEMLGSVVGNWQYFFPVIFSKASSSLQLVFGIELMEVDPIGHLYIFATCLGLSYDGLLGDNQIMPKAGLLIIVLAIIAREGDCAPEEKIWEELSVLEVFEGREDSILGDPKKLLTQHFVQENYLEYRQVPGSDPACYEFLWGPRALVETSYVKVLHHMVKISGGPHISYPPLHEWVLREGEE

B1: TMEL1004 (antibody, V domains shown)
VH: QITLKESGPTLVKPTQTLTLTCTFSGFSLNTPGVGVGWIRQPPGKALEWLALIYWDDDKRYRPSLESRLTITKDTSKNHVVLTMTNMDPVDTATYFCAHKNLQYSEWFDPWGQGTLVIVSS
VL: EMVLTQSPATLSLSPGERATLSCRASQSVSRNSLAWYQQRPGQTPRLLIYGASSRATGIPDRFSGSGSGTDFTLIISRLEPEDFAVYFCLQYDESPYTFGQGAKLEIKR
Turning to B1, the binding result in assay [1], in assay [2], in assay [3], in assay [4] and in assay [5] was “no binding (tested: 1 µg/ml)” in each case.

B2: TMEL1007 (antibody, V domains shown)
VH: HVHLVQSGAEVKKPGSSVKVSCTASGGSFSSNPISWVRQAPGHGLQWMGGFVPLFGTANYAPSFHGRLTITADESTSTTYMELNSLRSEDSAVYYCARDFNWNFDFWGQGTLVTVSS
VL: QSALTQPASVSGSPGQSITISCTGTSSDIGSYNLVSWYRQYPGKAPKLMIYEVNKRPSGVSNRFSGSKSGNTASLTISGLQAEDEADYYCCSYAGTTTFVIFGRGTKLTVLG
notes: It was detected with an anti-human IgG Fc gamma secondary antibody
As to B2, the binding result in assay [1] is “no binding (tested: 1 µg/ml)”; in assay [2], “no binding (tested: 1 µg/ml)”; in assay [3], “no binding (tested: 1 µg/ml)”; in assay [4], “no binding (tested: 1 µg/ml)”; in assay [5] it was “no binding (tested: 1 µg/ml)”; in assay [6], “binds”.

B3: TMEL1013 (antibody, V domains shown)
VH: PVQLVQSGAEVKKPGSSVKVSCKASGGTFSSYTINWVRQAPGQGLEWMGRIIPILGVANYAQKFQGRVTITADKSTSTAYMDLSSLRSEDTAVYYCAREWERAFDYWGQGTLVTVSS
VL: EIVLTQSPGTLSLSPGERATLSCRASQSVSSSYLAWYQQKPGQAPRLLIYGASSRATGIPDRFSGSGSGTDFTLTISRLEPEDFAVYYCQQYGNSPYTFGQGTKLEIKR
With B3, the binding result in assay [7], in assay [1], in assay [2], in assay [3], in assay [4] and in assay [5] was “no binding (tested: 1 µg/ml)” each time.

B4: TMEL1009 (antibody, V domains shown)
VH: PVQLVQSGAEVKKPGSSVKVSCRASGGTFSNYGLNWVRQAPGQGLEWMGGIIPIFGSVNYAQKFQDRVTITADESTSTTYMDLNSLRSEDTAVYYCATERGHNMERAFDFWGQGTLVTVSS
VL: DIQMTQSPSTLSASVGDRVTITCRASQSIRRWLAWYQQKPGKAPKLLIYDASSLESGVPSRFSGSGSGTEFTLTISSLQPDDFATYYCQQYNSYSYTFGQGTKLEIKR
Turning to B4, the binding result in assay [1], in assay [2], in assay [3], in assay [4] and in assay [5] was “no binding (tested: 1 µg/ml)” each time.

B5: TMEL1008 (antibody, V domains shown)
VH: QVQLVQSGAEVKKPGSSVKVSCKASGGTFNRDGIIWVRQAPGQGLEWMGRIIPILGIANYAQKFQGRVTIIADKSTSTAYMELSSLRSEDTAVYYCARESEVGRGMDVWGQGTTVTVSS
VL: ASALTQPASVSGSPGQSITISCTGTSSDVGDYNYVSWYQQHPGKAPKLMIYDVSNRPSGVSHRFSGSKSGNTASLTISGLQAEDEADYYCSSYTISSTLGVFGPGTKVTVLG
notes: as for B2
Turning to B5, the binding result in assay [8] is on record as “binds”; in assay [1] it was “no binding (tested: 1 µg/ml)”; in assay [2] it was “no binding (tested: 1 µg/ml)”; in assay [3] it was “no binding (tested: 1 µg/ml)”; in assay [4] it was “no binding (tested: 1 µg/ml)”; in assay [5], “no binding (tested: 1 µg/ml)”.

These data come from patent US20220031841A1 (ABSCI, published 2022).
